Laboratory results as given in publication doi:10.1101/2021.03.12.434960.

molecular target: taxol-stabilised microtubules of porcine brain tubulin (pig (porcine brain)) (UniProt P02550); assay: single-molecule TIRF microscopy on surface-bound microtubules

full-length human KIF5C, C-terminal mScarlet-StrepII, sequence (O60282 whole entry): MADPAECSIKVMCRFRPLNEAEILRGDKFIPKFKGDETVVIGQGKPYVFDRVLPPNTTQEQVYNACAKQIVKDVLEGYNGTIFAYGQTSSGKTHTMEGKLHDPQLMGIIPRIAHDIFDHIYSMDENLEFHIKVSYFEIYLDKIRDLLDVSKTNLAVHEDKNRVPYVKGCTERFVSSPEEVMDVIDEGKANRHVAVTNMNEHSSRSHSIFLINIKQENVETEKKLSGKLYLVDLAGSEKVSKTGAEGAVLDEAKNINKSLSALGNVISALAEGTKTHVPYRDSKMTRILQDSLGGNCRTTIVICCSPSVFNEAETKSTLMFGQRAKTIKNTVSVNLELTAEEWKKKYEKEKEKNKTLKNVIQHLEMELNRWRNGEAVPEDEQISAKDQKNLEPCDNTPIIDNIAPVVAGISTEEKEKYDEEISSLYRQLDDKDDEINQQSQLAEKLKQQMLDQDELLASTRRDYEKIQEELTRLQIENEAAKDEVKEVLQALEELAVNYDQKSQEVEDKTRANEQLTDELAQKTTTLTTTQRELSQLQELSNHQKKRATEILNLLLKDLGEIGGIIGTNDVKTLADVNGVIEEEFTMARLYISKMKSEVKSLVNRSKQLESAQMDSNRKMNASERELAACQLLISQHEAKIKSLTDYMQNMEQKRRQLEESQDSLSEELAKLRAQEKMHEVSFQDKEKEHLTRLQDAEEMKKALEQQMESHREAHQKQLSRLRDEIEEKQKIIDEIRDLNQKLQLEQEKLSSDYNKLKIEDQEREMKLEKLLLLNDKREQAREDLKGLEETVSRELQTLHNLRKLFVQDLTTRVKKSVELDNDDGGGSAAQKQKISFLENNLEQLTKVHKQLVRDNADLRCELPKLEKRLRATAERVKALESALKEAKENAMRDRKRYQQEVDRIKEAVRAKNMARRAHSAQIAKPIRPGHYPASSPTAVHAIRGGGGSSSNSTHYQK
K420A (human KIF5A aa 1-416, C-terminal mScarlet-StrepII), sequence (Q12840 1-416, stated change not applied): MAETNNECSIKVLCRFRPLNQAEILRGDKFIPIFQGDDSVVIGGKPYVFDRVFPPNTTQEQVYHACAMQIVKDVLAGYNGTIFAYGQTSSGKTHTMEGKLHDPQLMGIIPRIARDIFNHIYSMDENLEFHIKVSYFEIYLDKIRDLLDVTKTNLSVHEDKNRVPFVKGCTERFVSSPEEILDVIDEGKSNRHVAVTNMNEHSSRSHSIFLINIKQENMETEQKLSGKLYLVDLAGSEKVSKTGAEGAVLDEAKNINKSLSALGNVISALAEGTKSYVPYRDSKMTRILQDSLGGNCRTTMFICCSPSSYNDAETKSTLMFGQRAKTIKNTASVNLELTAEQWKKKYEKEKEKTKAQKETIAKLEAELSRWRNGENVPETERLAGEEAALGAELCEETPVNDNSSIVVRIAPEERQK
K420C (human KIF5C aa 1-416, C-terminal mScarlet-StrepII), sequence (O60282 1-416, stated change not applied): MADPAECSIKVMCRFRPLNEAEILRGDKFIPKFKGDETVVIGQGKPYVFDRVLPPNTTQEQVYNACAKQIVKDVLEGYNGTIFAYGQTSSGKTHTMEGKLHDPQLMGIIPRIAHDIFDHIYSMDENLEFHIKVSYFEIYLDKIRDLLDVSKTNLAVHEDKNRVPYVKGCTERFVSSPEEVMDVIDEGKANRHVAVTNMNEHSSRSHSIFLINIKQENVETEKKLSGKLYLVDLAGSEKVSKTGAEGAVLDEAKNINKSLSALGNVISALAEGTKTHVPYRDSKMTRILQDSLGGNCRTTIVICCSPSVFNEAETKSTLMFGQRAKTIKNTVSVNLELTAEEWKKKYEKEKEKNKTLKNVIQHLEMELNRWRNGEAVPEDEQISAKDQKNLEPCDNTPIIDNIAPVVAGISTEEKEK
full-length human KIF5A, C-terminal mScarlet-StrepII, sequence (Q12840 whole entry): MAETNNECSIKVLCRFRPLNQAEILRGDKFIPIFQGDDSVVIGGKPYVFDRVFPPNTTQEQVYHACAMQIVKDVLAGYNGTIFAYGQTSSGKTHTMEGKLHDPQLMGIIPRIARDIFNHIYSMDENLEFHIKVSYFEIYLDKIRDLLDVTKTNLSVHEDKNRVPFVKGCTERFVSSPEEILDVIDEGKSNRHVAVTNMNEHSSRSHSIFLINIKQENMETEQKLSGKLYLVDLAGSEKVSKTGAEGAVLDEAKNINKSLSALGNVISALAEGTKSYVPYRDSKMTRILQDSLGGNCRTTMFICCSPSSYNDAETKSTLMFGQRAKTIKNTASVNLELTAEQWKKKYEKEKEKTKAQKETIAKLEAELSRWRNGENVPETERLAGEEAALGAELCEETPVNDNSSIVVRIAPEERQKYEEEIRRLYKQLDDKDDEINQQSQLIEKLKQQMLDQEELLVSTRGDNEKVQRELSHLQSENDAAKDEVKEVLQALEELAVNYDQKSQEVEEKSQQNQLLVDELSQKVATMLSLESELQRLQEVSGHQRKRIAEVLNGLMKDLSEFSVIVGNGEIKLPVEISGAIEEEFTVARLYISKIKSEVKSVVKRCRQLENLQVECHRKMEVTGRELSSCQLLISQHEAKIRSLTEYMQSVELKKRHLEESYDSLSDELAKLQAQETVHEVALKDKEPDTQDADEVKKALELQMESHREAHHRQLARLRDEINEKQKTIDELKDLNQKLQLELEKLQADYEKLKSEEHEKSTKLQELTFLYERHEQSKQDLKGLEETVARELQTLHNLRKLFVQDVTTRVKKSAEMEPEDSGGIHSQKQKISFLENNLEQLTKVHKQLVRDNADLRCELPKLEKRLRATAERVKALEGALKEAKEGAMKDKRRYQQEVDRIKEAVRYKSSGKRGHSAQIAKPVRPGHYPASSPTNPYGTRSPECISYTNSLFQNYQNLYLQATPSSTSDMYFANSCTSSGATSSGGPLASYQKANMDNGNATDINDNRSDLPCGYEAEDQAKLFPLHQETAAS

Point of comparison: “KIF5C-KLC1 tetramer (from UniProt O60282;Q07866) (complex)”, landing rate 0.06 /μm/s/μM. Against it:
- K420A (human KIF5A aa 1-416, C-terminal mScarlet-StrepII) (from UniProt Q12840 1-416) (domain or fragment) — higher, 162 /μm/s/μM
- K420B (human KIF5B aa 1-420, C-terminal mScarlet-StrepII) (from UniProt P33176 1-420) (domain or fragment) — higher, 146 /μm/s/μM
- K420C (human KIF5C aa 1-416, C-terminal mScarlet-StrepII) (from UniProt O60282 1-416) (domain or fragment) — higher, 147 /μm/s/μM
- KIF5A-KLC1 tetramer (from UniProt Q12840;Q07866) (complex) — higher, 0.1 /μm/s/μM
- KIF5B-E178A, C-terminal mScarlet-StrepII (from UniProt P33176 1-963) (natural protein) — higher, 8.1 /μm/s/μM
- KIF5B-H129A, C-terminal mScarlet-StrepII (from UniProt P33176 1-963) (natural protein) — higher, 4.4 /μm/s/μM
- KIF5B-IAK/AAA, C-terminal mScarlet-StrepII (from UniProt P33176 1-963) (natural protein) — higher, 4.1 /μm/s/μM
- KIF5B-KLC1 tetramer (from UniProt P33176;Q07866) (complex) — the same, 0.06 /μm/s/μM
- KIF5B-Δhinge (Δ505-610), C-terminal mScarlet-StrepII (from UniProt P33176 1-963) (natural protein) — higher, 3.6 /μm/s/μM
- full-length human KIF5A, C-terminal mScarlet-StrepII (from UniProt Q12840 1-1032) (natural protein) — higher, 0.69 /μm/s/μM
- full-length human KIF5B, C-terminal mScarlet-StrepII (from UniProt P33176 1-963) (natural protein) — higher, 0.08 /μm/s/μM
- full-length human KIF5C, C-terminal mScarlet-StrepII (from UniProt O60282 1-957) (natural protein) — higher, 0.1 /μm/s/μM
